Results: patent US10272135B2, “Apolipoprotein O and fragments thereof for inducing apoptosis in a cancerous cell” (INSERM (INSTITUT NATIONAL DE LA SANTÉ ET DE LA RECHERCHE …, priority 2014, dated 2019)

Columns and labels:
[1] = tested on: U87 cells; experiment: Caspase-3 activity in U87 glioblastoma transfectants; assay type: cell-based, human; conditions: U87 pTT-ApoO vs control pTT, 100 μM palmitate overnight (FIG. 13)
Protocol: U87 were obtained from the European Collection of Cell Cultures (Salisbury, England). p y, g) U87 cells were cultured in Dulbecco's modified Eagle medium (Life Technologies SAS, Villebon sur Yvette) adjusted to contain 1.5 g/liter sodium bicarbonate and supplemented with antibiotic-antimycotic solution (Life Technologies SAS, Villebon sur Yvette) and 10% fetal bovine serum (FBS, AbCys s.a., Paris). Cells were plated on 10-cm diameter tissue culture dish and grown in a 5% CO2 incubator at 37° C. with saturating humidity with medium changes every 2 days. U87 glioblastomas were stably transfected by electroporation and pools of transfectants were selected as previously described (Smih et al 2002). Western Blot Analysis Cultured cells were resuspended in RIPA buffer (0.15 M sodium chloride, 1% NP-40, 0.5% sodium deoxycholate, 0.1% SDS, 50 mM Tris, pH 8) in the presence of a mix protease inhibitors. The lysate was sonicated 6 s and centrifuged at 6,500 g for 10 min. […] Protein immune-band densitometry was quantified with the ImageJ software. […] Caspase-3 activities were measured using the Caspase-3 Substrate IV Fluorogenic substate (VWR, Strasbourg) and a Victor™ X5 2030 multilabel reader (Perkin Elmer, Courtaboeuf). […]
The inventors measured and compared the Caspase-3 activity in • control U87 cells (pTT); and • U87 transfectants cells overexpressing ApoO (pTT-ApoO).

[2] = tested on: cytochrome C oxidase; experiment: Cytochrome C oxidase activity in cardiac myoblasts; assay type: cell-based; conditions: ApoO cells vs control
From the text: (§1) After ethical committee approval, all patients in this study gave written consent for sample collection and molecular analysis prior to inclusion. Patients were carefully selected by physicians from the Department of Cardiology, Toulouse University Hospital, prior to coronary by-pass surgery. Bioinformatics. Microarray expression data from human heart samples were downloaded from the GEO repository (GSE1145). This series consisted of 107 myocardial samples collected from patients undergoing cardiac transplantation whose failure arises from different etiologies (e.g. idiopathic dilated cardiomyopathy, ischemic cardiomyopathy, valvular cardiomyopathy, and hypertrophic cardiomyopathy) and from “normal” organ donors whose hearts cannot be used for transplants. Arrays were intensity normalized and hierarchical clustering (average group linkage, Pearson correlation, threshold r=0.8) was applied to identify groups of co-expressed genes. […] All ApoO sequences within the expression vectors were verified by DNA double strand sequencing using ABI PRISM®BigDye™ Terminator version 3.1 Ready reaction cycle sequencing kit (Life Technologies SAS, Villebon sur Yvette) and loaded on an ABI 3130XL DNA sequencing instrument (Life Technologies SAS, Villebon sur Yvette). […]

[3] = tested on: long-chain acyl-CoA synthetase (ACSL); experiment: Acyl-CoA synthetase activity in cardiac myoblasts; assay type: cell-based; conditions: ApoO cells vs control (FIG. 6C)
From the text: as §1

B1: ApoO: 198-amino acid apolipoprotein, SEQ ID NO: 1; tested by overexpression from expression vectors or transgene (protein, listed as Homo sapiens)
chain: MFKVIQRSVGPASLSLLTFKVYAAPKKDSPPKNSVKVDELSLYSVPEGQSKYVEEARSQLEESISQLRHYCEPYTTWCQETYSQTKPKMQSLVQWGLDSYDYLQNAPPGFFPRLGVIGFAGLIGLLLARGSKIKKLVYPPGFMGLAASLYYPQQAIVFAQVSGERLYDWGLRGYIVIEDLWKENFQKPGNVKNSPGTK
Caspase-3 activity [1]: significant increase
cytochrome C oxidase activity [2]: increase
long-chain acyl-CoA synthetase (ACSL) activity [3]: strongly increased
